Experimental data: IntAct's records for PubMed 10918185

B1: Tumor necrosis factor receptor superfamily member 6 (Homo sapiens), P25445 (parent)
chain: MLGIWTLLPLVLTSVARLSSKSVNAQVTDINSKGLELRKTVTTVETQNLEGLHHDGQFCHKPCPPGERKARDCTVNGDEPDCVPCQEGKEYTDKAHFSSKCRRCRLCDEGHGLEVEINCTRTQNTKCRCKPNFFCNSTVCEHCDPCTKCEHGIIKECTLTSNTKCKEEGSRSNLGWLCLLLLPIPLIVWVKRKEVQKTCRKHRKENQGSHESPTLNPETVAINLSDVDLSKYITTIAGVMTLSQVKGFVRKNGVNEAKIDEIKNDNVQDTAEQKVQLLRNWHQLHGKKEAYDTLIKDLKKANLCTLAEKIQTIILKDITSDSENSNFRNEIQSLV

Variants of: B1
Conditions: with ptn13_human PTPN13, Q12923
Sequence of ptn13_human PTPN13, Q12923 (Q12923 whole entry): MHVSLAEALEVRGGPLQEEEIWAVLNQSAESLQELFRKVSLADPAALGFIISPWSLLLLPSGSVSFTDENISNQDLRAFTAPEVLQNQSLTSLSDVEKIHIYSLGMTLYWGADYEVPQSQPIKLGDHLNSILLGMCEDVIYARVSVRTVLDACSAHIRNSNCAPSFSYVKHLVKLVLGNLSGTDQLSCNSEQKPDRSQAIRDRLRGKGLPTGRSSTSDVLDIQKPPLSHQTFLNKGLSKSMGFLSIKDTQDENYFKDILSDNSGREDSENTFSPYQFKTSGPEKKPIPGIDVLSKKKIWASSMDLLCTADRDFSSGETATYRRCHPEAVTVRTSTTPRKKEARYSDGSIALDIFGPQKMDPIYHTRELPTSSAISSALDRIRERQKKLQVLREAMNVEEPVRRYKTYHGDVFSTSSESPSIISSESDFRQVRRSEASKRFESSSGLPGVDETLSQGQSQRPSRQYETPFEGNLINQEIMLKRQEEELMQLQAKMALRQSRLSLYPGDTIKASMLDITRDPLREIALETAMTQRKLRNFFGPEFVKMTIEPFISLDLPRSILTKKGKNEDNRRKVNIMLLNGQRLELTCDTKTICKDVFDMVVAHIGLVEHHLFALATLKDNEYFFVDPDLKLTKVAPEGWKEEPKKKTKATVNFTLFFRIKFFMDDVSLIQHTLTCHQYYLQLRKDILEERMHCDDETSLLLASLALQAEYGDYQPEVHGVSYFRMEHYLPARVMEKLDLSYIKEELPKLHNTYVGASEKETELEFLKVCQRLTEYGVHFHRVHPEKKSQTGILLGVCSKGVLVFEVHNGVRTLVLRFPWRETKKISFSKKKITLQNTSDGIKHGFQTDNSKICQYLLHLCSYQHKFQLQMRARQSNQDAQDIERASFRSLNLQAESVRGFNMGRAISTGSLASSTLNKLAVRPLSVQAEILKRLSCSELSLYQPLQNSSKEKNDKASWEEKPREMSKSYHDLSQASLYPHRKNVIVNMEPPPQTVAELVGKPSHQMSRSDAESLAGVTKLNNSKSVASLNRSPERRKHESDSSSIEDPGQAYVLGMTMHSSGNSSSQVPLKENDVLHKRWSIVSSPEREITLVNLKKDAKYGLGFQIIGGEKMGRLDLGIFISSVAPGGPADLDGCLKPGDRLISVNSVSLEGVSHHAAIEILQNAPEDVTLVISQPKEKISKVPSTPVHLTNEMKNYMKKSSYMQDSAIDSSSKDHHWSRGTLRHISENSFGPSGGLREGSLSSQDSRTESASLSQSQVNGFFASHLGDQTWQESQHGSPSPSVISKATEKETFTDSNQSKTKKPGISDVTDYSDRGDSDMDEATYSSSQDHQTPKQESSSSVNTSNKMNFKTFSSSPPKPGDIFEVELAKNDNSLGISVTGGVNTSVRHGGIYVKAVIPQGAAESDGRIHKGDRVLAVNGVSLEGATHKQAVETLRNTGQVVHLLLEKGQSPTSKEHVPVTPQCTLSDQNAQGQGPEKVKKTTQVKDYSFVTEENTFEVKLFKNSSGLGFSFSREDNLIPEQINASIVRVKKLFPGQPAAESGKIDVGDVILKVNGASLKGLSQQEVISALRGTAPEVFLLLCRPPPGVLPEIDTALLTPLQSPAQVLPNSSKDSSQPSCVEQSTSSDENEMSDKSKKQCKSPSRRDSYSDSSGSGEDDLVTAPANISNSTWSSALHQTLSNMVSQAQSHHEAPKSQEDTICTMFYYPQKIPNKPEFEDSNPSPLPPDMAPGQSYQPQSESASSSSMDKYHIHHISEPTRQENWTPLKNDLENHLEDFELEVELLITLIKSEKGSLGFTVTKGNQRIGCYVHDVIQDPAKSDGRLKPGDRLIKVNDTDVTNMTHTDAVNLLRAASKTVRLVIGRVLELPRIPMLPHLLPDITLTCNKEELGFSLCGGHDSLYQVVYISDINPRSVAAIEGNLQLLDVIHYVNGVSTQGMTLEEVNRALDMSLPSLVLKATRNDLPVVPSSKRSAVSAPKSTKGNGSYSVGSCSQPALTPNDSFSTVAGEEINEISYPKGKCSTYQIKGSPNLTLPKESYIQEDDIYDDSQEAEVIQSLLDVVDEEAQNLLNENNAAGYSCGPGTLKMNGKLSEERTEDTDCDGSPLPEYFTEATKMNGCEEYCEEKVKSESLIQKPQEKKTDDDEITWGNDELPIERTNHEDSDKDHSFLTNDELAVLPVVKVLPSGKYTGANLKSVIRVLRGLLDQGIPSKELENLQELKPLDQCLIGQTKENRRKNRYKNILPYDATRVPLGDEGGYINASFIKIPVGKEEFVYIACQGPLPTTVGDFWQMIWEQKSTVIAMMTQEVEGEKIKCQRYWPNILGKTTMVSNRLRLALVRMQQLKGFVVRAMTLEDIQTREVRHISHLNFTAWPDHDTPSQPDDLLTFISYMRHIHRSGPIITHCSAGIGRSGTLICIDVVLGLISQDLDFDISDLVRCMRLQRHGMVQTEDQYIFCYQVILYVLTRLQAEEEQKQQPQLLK

Question: How did the “effect of a mutation on the interaction” value turn out when MLGIWTLLPLVLTSVARLSSKSVNAQVTDINSKGLELRKTVTTVETQNLEGLHHDGQFCHKPCPPGERKARDCTVNGDEPDCVPCQEGKEYTDKAHFSSKCRRCRLCDEGHGLEVEINCTRTQNTKCRCKPNFFCNSTVCEHCDPCTKCEHGIIKECTLTSNTKCKEEGSRSNLGWLCLLLLPIPLIVWVKRKEVQKTCRKHRKENQGSHESPTLNPETVAINLSDVDLSKYITTIAGVMTLSQVKGFVRKNGVNEAKIDEIKNDNVQDTAEQKVQLLRNWHQLHGKKEAYDTLIKDLKKANLCTLAEKIQTIILKDITSDSENSNFRNEIQPLV [S333P] was run?
Answer: Its value is “decreasing interaction”.
